From publication PMC9352680, “A comprehensive thermodynamic model for RNA binding by the Saccharomyces cerevisiae Pumilio protein PUF4” come the findings set out here.

The target of the series is T1, PUF4 RNA-binding domain (Saccharomyces cerevisiae, UniProt P25339 537-888).
T1 sequence: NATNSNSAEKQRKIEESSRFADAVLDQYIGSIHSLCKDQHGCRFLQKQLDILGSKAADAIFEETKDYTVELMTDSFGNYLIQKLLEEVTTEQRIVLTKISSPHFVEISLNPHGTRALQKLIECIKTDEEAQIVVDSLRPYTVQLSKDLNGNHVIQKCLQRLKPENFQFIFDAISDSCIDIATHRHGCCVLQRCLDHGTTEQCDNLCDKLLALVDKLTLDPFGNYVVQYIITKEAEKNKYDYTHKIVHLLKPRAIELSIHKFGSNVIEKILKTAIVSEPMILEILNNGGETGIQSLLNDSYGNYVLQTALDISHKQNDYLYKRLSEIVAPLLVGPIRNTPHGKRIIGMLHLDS
The series can be described thus: Mg; RNA-MaP; 20 mM Na-HEPES pH 7.4, 30 mM KOAc, 0.75 mM MgCl2, 0.1% Tween-20, 5% glycerol, 0.1 mg/mL BSA, 2 mM DTT; 25 C; 0.0125-409.6 nM protein. The following applies: tags: N-His6-TEV cleaved; C-SNAP kept, Cy3B-labelled; label: tethered on chip by stalled RNA polymerase.

Substitutions are numbered along the chain they refer to. Numbers in names are those of the source.

B1: Id_ii_S4_P4E.2_K4.1_C4.2_H4.1_A4.1_F4.1_T4.2_[G10A]_[T11A] (ssRNA)
RNA: UUUGACAACUGAUCGUUCUUUCUCUUGUAUAUUAAAUUCUUUCUCGAUCAGUUGUCUUU
As to B1, binding was characterised by a dissociation constant (Kd) of 0.422 nM. That is a sub-nanomolar value.

B2: Id_ii_S4_P4E.2_K4.1_C4.2_[C-2A]_[T-1C]_H4.1_A4.1_F4.1_T4.2_[G10T]_[T11A] (ssRNA)
RNA: B1 RNA with C24A, U25C, A35U
B2 came in with a Kd of 0.625 nM.

B3: Id_ii_S4_P4E.3_K4.2_C4.2_[C-2G]_[T-1C]_H4.2_A4.1_F4.1_T4.2_[G10T]_[T11C] (ssRNA)
RNA: B1 RNA with C24G, U25C, G27A, A35U, A36C
Turning to B3, the Kd came to 19.6 nM.

B4: Id_ii_S4_P4E.2_K4.1_C4.2_[C-2T]_H4.1_A4.1_F4.1_T4.2_[G10A]_[T11G] (ssRNA)
RNA: B1 RNA with C24U, A36G
As for B4, the Kd came out at 3.49 nM.

B5: Id_ii_S4_P4E.3_K4.2_C4.2_[C-2T]_H4.2_A4.1_F4.1_T4.2_[G10T]_[T11G] (ssRNA)
RNA: B1 RNA with C24U, G27A, A35U, A36G
Turning to B5, the affinity, expressed as Kd, was 8.62 nM.

B6: Id_ii_S4_P4E.3_K4.2_C4.2_[C-2T]_[T-1G]_H4.2_A4.1_F4.1_T4.2_[G10A]_[T11C] (ssRNA)
RNA: B1 RNA with C24U, U25G, G27A, A36C
Regarding B6, the Kd was determined as 3.87 nM.

B7: Id_ii_S4_P4E.2_K4.1_C4.2_[C-2A]_[T-1A]_H4.1_A4.1_F4.1_T4.2_[G10A] (ssRNA)
RNA: B1 RNA with C24A, U25A, A36U
Molecule B7 gave a Kd of 1.37 nM. This Kd is about 2.8-fold lower than that of the molecule before.

B8: Id_ii_S4_P4E.2_K4.1_C4.2_[C-2T]_H4.1_A4.1_F4.1_T4.2_[G10A]_[T11C] (ssRNA)
RNA: B1 RNA with C24U, A36C
B8 came in with a Kd of 0.493 nM.

B9: Id_ii_S4_P4E.2_K4.1_C4.2_[C-2A]_[T-1C]_H4.1_A4.1_F4.1_T4.2_[G10T]_[T11C] (ssRNA)
RNA: B1 RNA with C24A, U25C, A35U, A36C
B9 registered a Kd of 0.306 nM.

B10: Id_ii_S4_P4E.3_K4.2_C4.2_[C-2T]_[T-1C]_H4.2_A4.1_F4.1_T4.2_[G10C]_[T11A] (ssRNA)
RNA: B1 RNA with C24U, U25C, G27A, A35C
Consider B10, for which binding was characterised by a dissociation constant (Kd) of 12.6 nM.

B11: Id_ii_S4_P4E.2_K4.1_C4.2_H4.1_A4.1_F4.1_T4.2_[G10T] (ssRNA)
RNA: B1 RNA with A35U, A36U
In turn, B11 yielded a Kd of 0.116 nM.

B12: Id_ii_S4_P4E.3_K4.2_C4.2_[C-2G]_H4.2_A4.1_F4.1_T4.2_[G10A] (ssRNA)
RNA: B1 RNA with C24G, G27A, A36U
For B12, the affinity, expressed as Kd, was 62 nM. Compared with the last molecule, the Kd is about 530-fold higher.

B13: Id_ii_S4_P4E.2_K4.1_C4.2_[T-1G]_H4.1_A4.1_F4.1_T4.2 (ssRNA)
RNA: B1 RNA with U25G, A35G, A36U
B13: binding was characterised by a dissociation constant (Kd) of 0.364 nM.

B14: Id_ii_S4_P4E.2_K4.1_C4.2_[C-2A]_[T-1A]_H4.1_A4.1_F4.1_T4.2_[G10T] (ssRNA)
RNA: B1 RNA with C24A, U25A, A35U, A36U
Consider B14, for which the Kd amounted to 1.56 nM.

B15: Id_ii_S4_P4E.2_K4.1_C4.2_H4.1_A4.1_F4.1_T4.2_[G10C] (ssRNA)
RNA: B1 RNA with A35C, A36U
Molecule B15 came in with a dissociation constant Kd of 0.434 nM.

B16: Id_ii_S4_P4E.3_K4.2_C4.2_[C-2T]_H4.2_A4.1_F4.1_T4.2_[G10C]_[T11G] (ssRNA)
RNA: B1 RNA with C24U, G27A, A35C, A36G
Molecule B16 returned a Kd of 10.1 nM. Against the preceding molecule, the Kd is about 23-fold higher.

B17: Id_ii_S4_P4E.3_K4.2_C4.2_[C-2A]_[T-1C]_H4.2_A4.1_F4.1_T4.2_[G10T]_[T11C] (ssRNA)
RNA: B1 RNA with C24A, U25C, G27A, A35U, A36C
B17 showed a Kd of 6.68 nM. This Kd is about 1.5-fold lower than that of the molecule before.

B18: Id_ii_S4_P4E.2_K4.1_C4.2_[C-2T]_H4.1_A4.1_F4.1_T4.2_[T11C] (ssRNA)
RNA: B1 RNA with C24U, A35G, A36C
In the case of B18, the Kd turned out to be 0.339 nM.

B19: Id_ii_S4_P4E.3_K4.2_C4.2_[C-2G]_[T-1G]_H4.2_A4.1_F4.1_T4.2_[G10A] (ssRNA)
RNA: B1 RNA with C24G, U25G, G27A, A36U
For the molecule B19, binding was characterised by a dissociation constant (Kd) of 125 nM. This Kd lies about 370-fold higher than the previous one.

B20: Id_ii_S4_P4E.2_K4.1_C4.2_[C-2A]_[T-1C]_H4.1_A4.1_F4.1_T4.2_[G10C] (ssRNA)
RNA: B1 RNA with C24A, U25C, A35C, A36U
In the case of B20, binding was put at a Kd of 1.24 nM.

B21: Id_ii_S4_P4E.2_K4.1_C4.2_[C-2T]_H4.1_A4.1_F4.1_T4.2 (ssRNA)
RNA: B1 RNA with C24U, A35G, A36U
B21 yielded a Kd of 0.37 nM.

B22: Id_ii_S4_P4E.2_K4.1_C4.2_[T-1A]_H4.1_A4.1_F4.1_T4.2_[T11G] (ssRNA)
RNA: B1 RNA with U25A, A35G, A36G
B22 came in with a Kd of 1.11 nM.

B23: Id_ii_S4_P4E.2_K4.1_C4.2_[C-2T]_H4.1_A4.1_F4.1_T4.2_[G10T]_[T11G] (ssRNA)
RNA: B1 RNA with C24U, A35U, A36G
Take B23: the affinity, expressed as Kd, was 0.308 nM.

B24: Id_ii_S4_P4E.2_K4.1_C4.2_[T-1G]_H4.1_A4.1_F4.1_T4.2_[G10T] (ssRNA)
RNA: B1 RNA with U25G, A35U, A36U
In the case of B24, the Kd came to 0.196 nM.

B25: Ib_S1_P5E.1_K5.1_C5.1_H5.1_[G2T]_A5.1_[T6A]_F5.1_T5.1 (ssRNA)
RNA: UCUCUUUUUAUAAUUAUCUCUU
In turn, B25 registered a Kd of over 2300 nM.

B26: Ib_S1_P5E.1_K5.1_C5.1_H5.1_[G2C]_A5.1_[A7T]_F5.1_T5.1 (ssRNA)
RNA: UCUCUUUCUAUUUUUAUCUCUU
B26 registered a Kd of over 2300 nM.

B27: Ib_S1_P5E.1_K5.1_C5.1_H5.1_[G2A]_A5.1_[T6A]_F5.1_T5.1 (ssRNA)
RNA: UCUCUUUAUAUAAUUAUCUCUU
Turning to B27, the affinity, expressed as Kd, was 1010 nM.

A word on the Kd: it is the constant that tells how readily two partners part at equilibrium. Read a high Kd as weaker binding.
